From patent publication US20150166628A1

Target: cellular IGF-1 receptors (UniProt P24062)
Test: cell-based or functional assay

UniProt P24062, sequence (P24062 31-1370): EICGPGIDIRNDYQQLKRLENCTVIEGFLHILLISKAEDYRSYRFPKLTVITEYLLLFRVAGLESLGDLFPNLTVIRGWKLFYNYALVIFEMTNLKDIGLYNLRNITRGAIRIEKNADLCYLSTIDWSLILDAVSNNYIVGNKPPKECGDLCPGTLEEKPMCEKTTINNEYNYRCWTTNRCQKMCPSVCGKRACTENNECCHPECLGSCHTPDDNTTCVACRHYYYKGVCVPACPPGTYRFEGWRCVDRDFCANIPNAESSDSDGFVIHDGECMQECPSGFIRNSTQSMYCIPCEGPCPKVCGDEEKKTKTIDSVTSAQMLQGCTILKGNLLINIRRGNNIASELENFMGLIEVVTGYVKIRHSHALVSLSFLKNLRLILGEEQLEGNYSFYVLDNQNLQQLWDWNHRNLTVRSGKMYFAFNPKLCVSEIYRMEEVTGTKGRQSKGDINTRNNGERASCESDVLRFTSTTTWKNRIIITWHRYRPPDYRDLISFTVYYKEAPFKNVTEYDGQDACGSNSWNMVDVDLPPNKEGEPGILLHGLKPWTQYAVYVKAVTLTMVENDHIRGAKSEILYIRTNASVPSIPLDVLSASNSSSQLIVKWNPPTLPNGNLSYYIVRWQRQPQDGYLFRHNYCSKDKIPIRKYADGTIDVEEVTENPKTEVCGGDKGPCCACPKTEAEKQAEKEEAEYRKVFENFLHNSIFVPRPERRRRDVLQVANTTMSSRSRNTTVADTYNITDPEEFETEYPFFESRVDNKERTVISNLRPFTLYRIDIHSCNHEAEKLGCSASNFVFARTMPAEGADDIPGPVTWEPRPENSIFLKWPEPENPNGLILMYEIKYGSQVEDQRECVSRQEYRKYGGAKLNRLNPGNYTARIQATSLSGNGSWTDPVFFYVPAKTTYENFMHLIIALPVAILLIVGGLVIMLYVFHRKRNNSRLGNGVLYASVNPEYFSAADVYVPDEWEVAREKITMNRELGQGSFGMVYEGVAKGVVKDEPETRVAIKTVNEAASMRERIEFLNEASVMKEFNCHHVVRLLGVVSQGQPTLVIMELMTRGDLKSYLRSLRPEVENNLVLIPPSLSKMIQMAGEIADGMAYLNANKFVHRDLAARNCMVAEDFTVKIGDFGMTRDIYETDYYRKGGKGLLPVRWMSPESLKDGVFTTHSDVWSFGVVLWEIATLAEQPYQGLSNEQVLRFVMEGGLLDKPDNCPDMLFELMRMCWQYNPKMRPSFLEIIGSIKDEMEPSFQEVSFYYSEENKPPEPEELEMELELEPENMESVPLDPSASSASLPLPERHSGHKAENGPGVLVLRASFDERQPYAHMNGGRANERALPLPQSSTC

Q: Which results are given for “HB-IGF-1 fusion protein (heparin-binding domain of human HB-EGF with a single cysteine-to-serine mutation fused to the amino-terminus of a mature IGF-1 protein) (from UniProt P05019 49-118)”?
A: sulfate incorporation into meniscal cartilage, normalized to saline injection, four days after injection (fold of saline): 1.82; sulfate incorporation into meniscal cartilage, normalized to saline injection, two days after injection (fold of saline): 2.1
